In the Human Domainome abundance scans (Beltran et al. 2025):
± gives the uncertainty stated by the source.

B1: POU domain, class 5, transcription factor 1, residues 134 to 212; numbered along this chain, Q01860 (parent)
chain: EESQDIKALQKELEQFAKLLKQKRITLGYTQADVGLTLGVLFGKVFSQTTICRFEALQLSFKNMCKLRPLLQKWVEEAD

Variants of: B1
Test: abundance fitness (aPCA) (normalised: wild type 0, dead -1); higher = more abundant; growth selection in yeast, the domain comes from the species named
Conditions: Homo sapiens

Row | Variant | abundance fitness
1 | EEFQDIKALQKELEQFAKLLKQKRITLGYTQADVGLTLGVLFGKVFSQTTICRFEALQLSFKNMCKLRPLLQKWVEEAD [S3F] | -0.082 ± 0.27
2 | EEGQDIKALQKELEQFAKLLKQKRITLGYTQADVGLTLGVLFGKVFSQTTICRFEALQLSFKNMCKLRPLLQKWVEEAD [S3G] | 0.131 ± 0.17
3 | EELQDIKALQKELEQFAKLLKQKRITLGYTQADVGLTLGVLFGKVFSQTTICRFEALQLSFKNMCKLRPLLQKWVEEAD [S3L] | 0.163 ± 0.38
4 | EEVQDIKALQKELEQFAKLLKQKRITLGYTQADVGLTLGVLFGKVFSQTTICRFEALQLSFKNMCKLRPLLQKWVEEAD [S3V] | 0.323 ± 0.24
5 | EESADIKALQKELEQFAKLLKQKRITLGYTQADVGLTLGVLFGKVFSQTTICRFEALQLSFKNMCKLRPLLQKWVEEAD [Q4A] | -0.097 ± 0.081
6 | EESCDIKALQKELEQFAKLLKQKRITLGYTQADVGLTLGVLFGKVFSQTTICRFEALQLSFKNMCKLRPLLQKWVEEAD [Q4C] | -0.211 ± 0.22
7 | EESDDIKALQKELEQFAKLLKQKRITLGYTQADVGLTLGVLFGKVFSQTTICRFEALQLSFKNMCKLRPLLQKWVEEAD [Q4D] | 0.046 ± 0.14
8 | EESEDIKALQKELEQFAKLLKQKRITLGYTQADVGLTLGVLFGKVFSQTTICRFEALQLSFKNMCKLRPLLQKWVEEAD [Q4E] | -0.13 ± 0.1
9 | EESFDIKALQKELEQFAKLLKQKRITLGYTQADVGLTLGVLFGKVFSQTTICRFEALQLSFKNMCKLRPLLQKWVEEAD [Q4F] | -0.059 ± 0.24
10 | EESGDIKALQKELEQFAKLLKQKRITLGYTQADVGLTLGVLFGKVFSQTTICRFEALQLSFKNMCKLRPLLQKWVEEAD [Q4G] | -0.064 ± 0.07
11 | EESHDIKALQKELEQFAKLLKQKRITLGYTQADVGLTLGVLFGKVFSQTTICRFEALQLSFKNMCKLRPLLQKWVEEAD [Q4H] | -0.051 ± 0.4
12 | EESIDIKALQKELEQFAKLLKQKRITLGYTQADVGLTLGVLFGKVFSQTTICRFEALQLSFKNMCKLRPLLQKWVEEAD [Q4I] | -0.309 ± 0.24
13 | EESKDIKALQKELEQFAKLLKQKRITLGYTQADVGLTLGVLFGKVFSQTTICRFEALQLSFKNMCKLRPLLQKWVEEAD [Q4K] | -0.011 ± 0.16
14 | EESLDIKALQKELEQFAKLLKQKRITLGYTQADVGLTLGVLFGKVFSQTTICRFEALQLSFKNMCKLRPLLQKWVEEAD [Q4L] | -0.067 ± 0.09
15 | EESMDIKALQKELEQFAKLLKQKRITLGYTQADVGLTLGVLFGKVFSQTTICRFEALQLSFKNMCKLRPLLQKWVEEAD [Q4M] | -0.118 ± 0.18
16 | EESNDIKALQKELEQFAKLLKQKRITLGYTQADVGLTLGVLFGKVFSQTTICRFEALQLSFKNMCKLRPLLQKWVEEAD [Q4N] | -0.253 ± 0.32
17 | EESPDIKALQKELEQFAKLLKQKRITLGYTQADVGLTLGVLFGKVFSQTTICRFEALQLSFKNMCKLRPLLQKWVEEAD [Q4P] | -0.135 ± 0.12

Row | Variant | abundance fitness
18 | EESSDIKALQKELEQFAKLLKQKRITLGYTQADVGLTLGVLFGKVFSQTTICRFEALQLSFKNMCKLRPLLQKWVEEAD [Q4S] | -0.258 ± 0.13
19 | EESTDIKALQKELEQFAKLLKQKRITLGYTQADVGLTLGVLFGKVFSQTTICRFEALQLSFKNMCKLRPLLQKWVEEAD [Q4T] | 0.005 ± 0.11
20 | EESVDIKALQKELEQFAKLLKQKRITLGYTQADVGLTLGVLFGKVFSQTTICRFEALQLSFKNMCKLRPLLQKWVEEAD [Q4V] | -0.061 ± 0.088
21 | EESYDIKALQKELEQFAKLLKQKRITLGYTQADVGLTLGVLFGKVFSQTTICRFEALQLSFKNMCKLRPLLQKWVEEAD [Q4Y] | 0.291 ± 0.19
22 | EESQAIKALQKELEQFAKLLKQKRITLGYTQADVGLTLGVLFGKVFSQTTICRFEALQLSFKNMCKLRPLLQKWVEEAD [D5A] | -0.126 ± 0.21
23 | EESQCIKALQKELEQFAKLLKQKRITLGYTQADVGLTLGVLFGKVFSQTTICRFEALQLSFKNMCKLRPLLQKWVEEAD [D5C] | 0.057 ± 0.35
24 | EESQEIKALQKELEQFAKLLKQKRITLGYTQADVGLTLGVLFGKVFSQTTICRFEALQLSFKNMCKLRPLLQKWVEEAD [D5E] | -0.343 ± 0.42
25 | EESQGIKALQKELEQFAKLLKQKRITLGYTQADVGLTLGVLFGKVFSQTTICRFEALQLSFKNMCKLRPLLQKWVEEAD [D5G] | -0.331 ± 0.2
26 | EESQNIKALQKELEQFAKLLKQKRITLGYTQADVGLTLGVLFGKVFSQTTICRFEALQLSFKNMCKLRPLLQKWVEEAD [D5N] | 0.092 ± 0.41
27 | EESQPIKALQKELEQFAKLLKQKRITLGYTQADVGLTLGVLFGKVFSQTTICRFEALQLSFKNMCKLRPLLQKWVEEAD [D5P] | 0.062 ± 0.42
28 | EESQSIKALQKELEQFAKLLKQKRITLGYTQADVGLTLGVLFGKVFSQTTICRFEALQLSFKNMCKLRPLLQKWVEEAD [D5S] | -0.191 ± 0.41
29 | EESQTIKALQKELEQFAKLLKQKRITLGYTQADVGLTLGVLFGKVFSQTTICRFEALQLSFKNMCKLRPLLQKWVEEAD [D5T] | -0.141 ± 0.4
30 | EESQVIKALQKELEQFAKLLKQKRITLGYTQADVGLTLGVLFGKVFSQTTICRFEALQLSFKNMCKLRPLLQKWVEEAD [D5V] | -0.018 ± 0.41
31 | EESQDAKALQKELEQFAKLLKQKRITLGYTQADVGLTLGVLFGKVFSQTTICRFEALQLSFKNMCKLRPLLQKWVEEAD [I6A] | 0.005 ± 0.085
32 | EESQDCKALQKELEQFAKLLKQKRITLGYTQADVGLTLGVLFGKVFSQTTICRFEALQLSFKNMCKLRPLLQKWVEEAD [I6C] | -0.417 ± 0.43
33 | EESQDDKALQKELEQFAKLLKQKRITLGYTQADVGLTLGVLFGKVFSQTTICRFEALQLSFKNMCKLRPLLQKWVEEAD [I6D] | 0.122 ± 0.16
34 | EESQDEKALQKELEQFAKLLKQKRITLGYTQADVGLTLGVLFGKVFSQTTICRFEALQLSFKNMCKLRPLLQKWVEEAD [I6E] | -0.452 ± 0.17
